One molecule from patent CN105524169A (UNIV NANCHANG, dated 2016) can be followed below.

Experiment [1] deals with T1, PSMA on LNCaP prostate cancer cells (UniProt Q04609 1-750, limits assumed).
T1 construct: whole, on cells; Cells fixed with 4% paraformaldehyde before the assay; also called 前列腺特异性膜抗原; LNCaP细胞(表达PSMA)
Kind of experiment: cell ELISA on fixed LNCaP (PSMA+) against MKN45 (PSMA-) cells, HRP-anti-M13, OD450.

Experiment [2] deals with T2, PSMA胞外区蛋白 (recombinant extracellular region of prostate specific membrane antigen, expressed in HEK-293) (UniProt Q04609 44-750, limits assumed).
T2 construct: extracellular domain; also called 前列腺特异性膜抗原膜外区; PSMA蛋白
T2 sequence (Q04609 44-750 limits assumed): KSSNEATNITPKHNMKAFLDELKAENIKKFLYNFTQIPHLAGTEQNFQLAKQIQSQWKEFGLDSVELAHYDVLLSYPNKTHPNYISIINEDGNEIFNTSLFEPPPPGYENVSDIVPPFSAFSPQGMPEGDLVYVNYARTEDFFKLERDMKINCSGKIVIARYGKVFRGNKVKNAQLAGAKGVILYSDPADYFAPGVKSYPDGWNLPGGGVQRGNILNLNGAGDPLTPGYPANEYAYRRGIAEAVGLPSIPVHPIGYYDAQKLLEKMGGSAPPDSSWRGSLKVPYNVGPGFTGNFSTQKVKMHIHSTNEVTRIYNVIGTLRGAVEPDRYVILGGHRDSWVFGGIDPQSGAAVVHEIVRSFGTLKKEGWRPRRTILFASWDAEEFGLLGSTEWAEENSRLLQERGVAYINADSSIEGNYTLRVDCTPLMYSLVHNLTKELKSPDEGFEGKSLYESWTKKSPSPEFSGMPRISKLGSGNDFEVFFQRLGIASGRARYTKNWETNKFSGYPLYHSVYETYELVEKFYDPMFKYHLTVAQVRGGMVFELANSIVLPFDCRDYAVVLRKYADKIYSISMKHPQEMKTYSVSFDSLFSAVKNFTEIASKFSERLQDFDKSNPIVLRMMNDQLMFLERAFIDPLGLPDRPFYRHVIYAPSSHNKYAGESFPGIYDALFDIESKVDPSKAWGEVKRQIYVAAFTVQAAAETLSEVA
Kind of experiment: indirect phage ELISA, PSMA extracellular region protein coated at 5 μg/mL, HRP-anti-M13 detection. On the technique in general: ELISA stands for enzyme-linked immunosorbent assay.

T1 sequence (Q04609 whole entry): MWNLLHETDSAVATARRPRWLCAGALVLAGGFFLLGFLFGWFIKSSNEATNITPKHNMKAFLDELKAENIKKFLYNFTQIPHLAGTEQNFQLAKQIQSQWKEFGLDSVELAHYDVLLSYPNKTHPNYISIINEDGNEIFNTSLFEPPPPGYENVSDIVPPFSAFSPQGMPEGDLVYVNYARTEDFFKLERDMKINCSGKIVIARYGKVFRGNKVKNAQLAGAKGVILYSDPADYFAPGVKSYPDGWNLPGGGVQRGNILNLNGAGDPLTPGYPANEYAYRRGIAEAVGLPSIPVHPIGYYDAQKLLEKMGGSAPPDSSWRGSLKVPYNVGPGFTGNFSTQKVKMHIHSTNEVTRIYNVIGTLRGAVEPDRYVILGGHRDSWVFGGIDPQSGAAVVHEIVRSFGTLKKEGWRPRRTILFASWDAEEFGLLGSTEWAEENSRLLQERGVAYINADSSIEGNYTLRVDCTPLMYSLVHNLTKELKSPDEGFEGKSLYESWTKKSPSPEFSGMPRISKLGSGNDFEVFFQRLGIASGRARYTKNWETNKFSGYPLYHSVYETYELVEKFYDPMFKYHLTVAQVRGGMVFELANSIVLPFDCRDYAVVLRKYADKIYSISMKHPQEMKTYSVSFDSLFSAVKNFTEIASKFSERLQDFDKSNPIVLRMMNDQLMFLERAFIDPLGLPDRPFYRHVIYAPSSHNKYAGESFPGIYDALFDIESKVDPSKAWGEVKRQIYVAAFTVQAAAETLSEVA

B1: 抗前列腺特异性膜抗原单域重链抗体噬菌体阳性克隆 (phage clone displaying the anti-PSMA single-domain heavy-chain antibody) (VHH)
VHH: QVQLVESGGGLVQAGGSLRLSCAASGRTISRYAVGWFRQAPGKDREFVAGITRSSSLTGYTDSVKGRFTISRDNAENTVYLQMNSLKPEDTAVYYCAGGPGSYKYWGKGTQVTVSS
notes: detected with anti-M13 antibodies; also called 展示本发明所述纳米抗体的噬菌体克隆; not shown: hinge/linker and coat protein fusion are not described
For B1, the binding result in experiment [1] and in experiment [2] was “binds” each time.
